For test [1], the target named is T1, rat TrkB extracellular domain expressed with a C-terminal myc-myc-hexahistidine tag (rat, UniProt Q63604 32-429).
T1 construct: also called rTrkB.mmH; rTRKB.mmH
Put plainly: SPR, mAb captured (anti-mFc), 25C. As for the experimental part:
(§1) Equilibrium dissociation constants (KD values) for TrkB binding to purified anti-TrkB monoclonal antibodies were determined using a real-time surface plasmon resonance biosensor using a Biacore 4000 instrument. All binding studies were performed in 10 mM Hepes pH 7.4, 150 mM NaCl, 3 mM EDTA, and 0.05% v/v Surfactant Tween-20 (HBS-ET running buffer) at 25° C. and 37° C. […] Binding studies were performed on following TrkB reagents; human TrkB extracellular domain expressed with a C-terminal myc-myc-hexahistidine tag (hTRKB.mmH; SEQ ID NO: 76; Accession number NP_001018074.1), mouse TrkB extracellular domain expressed with a C-terminal myc-myc-hexahistidine tag (mTRKB.mmH; SEQ ID NO: 79; Accession number NP_001020245), rat TrkB extracellular domain expressed with a C-terminal myc-myc-hexahistidine tag (rTRKB.mmH; SEQ ID NO: 84; Accession number NP_036863.1), and human TrkB extracellular domain expressed with a C-terminal mouse IgG2a Fc tag (hTrkB-mFc; SEQ ID NO: 77; Accession number NP_001018074.1). […] Kinetic association (kₐ) and dissociation (kd) rate constants were determined by fitting the real-time binding sensorgrams to a 1:1 binding model with mass transport limitation using Scrubber 2.0c curve-fitting software. Binding dissociation equilibrium constants (KD) and dissociative half-lives (t½) were calculated from the kinetic rate constants as: […]
(In general: SPR reads the build-up and loss of mass on a sensor chip optically.)

Test [2] concerns the target T2, mouse TrkB extracellular domain expressed with a C-terminal myc-myc-hexahistidine tag (mouse, UniProt P15209 32-429).
T2 construct: also called mTrkB.mmH; mTRKB.mmH
The test can be described thus: SPR, mAb captured (anti-mFc), 25C. As for the experimental part:
as §1

For test [3], the target named is T3, human TrkB extracellular domain expressed with a C-terminal myc-myc-hexahistidine tag (human, UniProt Q16620 32-430).
T3 construct: also called hTrkB.mmH; hTRKB.mmH
T3 sequence (Q16620 other isoform, or with tags, fused parts or gaps): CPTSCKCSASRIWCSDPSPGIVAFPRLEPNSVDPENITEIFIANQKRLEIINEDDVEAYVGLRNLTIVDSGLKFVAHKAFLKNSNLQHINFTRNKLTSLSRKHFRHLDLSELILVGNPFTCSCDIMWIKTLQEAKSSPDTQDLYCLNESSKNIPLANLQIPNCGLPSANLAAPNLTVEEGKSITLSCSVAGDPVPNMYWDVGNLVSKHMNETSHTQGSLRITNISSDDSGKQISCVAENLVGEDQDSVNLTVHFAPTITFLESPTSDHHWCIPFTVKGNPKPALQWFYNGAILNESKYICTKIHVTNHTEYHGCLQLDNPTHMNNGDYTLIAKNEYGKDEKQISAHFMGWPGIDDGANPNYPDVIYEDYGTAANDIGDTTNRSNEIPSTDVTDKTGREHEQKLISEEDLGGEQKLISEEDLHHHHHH
Put plainly: SPR, mAb captured (anti-mFc), 25C. As for the experimental part:
as §1

The target in test [4] is T4, human TrkB extracellular domain expressed with a C-terminal mouse IgG2a Fc tag (human).
T4 construct: also called hTrkB-mFc; hTrkB.mFc
T4 sequence (chain, as listed by the source limits assumed): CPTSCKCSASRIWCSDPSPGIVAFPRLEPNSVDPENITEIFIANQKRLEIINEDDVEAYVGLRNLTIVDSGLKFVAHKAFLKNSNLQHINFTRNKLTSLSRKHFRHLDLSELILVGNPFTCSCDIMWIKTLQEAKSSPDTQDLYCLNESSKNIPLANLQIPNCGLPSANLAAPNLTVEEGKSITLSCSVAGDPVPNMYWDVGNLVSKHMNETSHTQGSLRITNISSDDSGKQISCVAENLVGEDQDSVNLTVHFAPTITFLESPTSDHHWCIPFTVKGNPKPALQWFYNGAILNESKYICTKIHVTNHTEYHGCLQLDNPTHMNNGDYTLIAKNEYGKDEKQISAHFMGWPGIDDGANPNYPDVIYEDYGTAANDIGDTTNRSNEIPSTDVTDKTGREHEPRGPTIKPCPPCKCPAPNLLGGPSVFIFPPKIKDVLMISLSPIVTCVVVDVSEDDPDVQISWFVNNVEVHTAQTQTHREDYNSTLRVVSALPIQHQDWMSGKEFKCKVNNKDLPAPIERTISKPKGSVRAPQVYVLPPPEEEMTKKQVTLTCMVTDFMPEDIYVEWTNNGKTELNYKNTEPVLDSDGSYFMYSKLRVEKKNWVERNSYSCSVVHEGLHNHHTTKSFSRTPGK
The test can be described thus: SPR, mAb captured (anti-mFc), 25C. As for the experimental part:
as §1

Test [5] deals with T1, rat TrkB extracellular domain expressed …. The test can be described thus: SPR, mAb captured (anti-mFc), 37C. The procedure:
as §1

The target of test [6] is T2, mouse TrkB extracellular domain …. Put plainly: SPR, mAb captured (anti-mFc), 37C. The procedure:
as §1

Test [7] concerns the target T3, human TrkB extracellular domain …. Put plainly: SPR, mAb captured (anti-mFc), 37C. The procedure: as §1
Test [8] deals with T4, human TrkB extracellular domain …. The test can be described thus: SPR, mAb captured (anti-mFc), 37C. As for the experimental part: as §1
The target in another test is T5, mouse TrkB.hFc (mouse).
T5 construct: also called mTrkB.hFc; mTrkB-hFc
T5 sequence (chain, as listed by the source limits assumed): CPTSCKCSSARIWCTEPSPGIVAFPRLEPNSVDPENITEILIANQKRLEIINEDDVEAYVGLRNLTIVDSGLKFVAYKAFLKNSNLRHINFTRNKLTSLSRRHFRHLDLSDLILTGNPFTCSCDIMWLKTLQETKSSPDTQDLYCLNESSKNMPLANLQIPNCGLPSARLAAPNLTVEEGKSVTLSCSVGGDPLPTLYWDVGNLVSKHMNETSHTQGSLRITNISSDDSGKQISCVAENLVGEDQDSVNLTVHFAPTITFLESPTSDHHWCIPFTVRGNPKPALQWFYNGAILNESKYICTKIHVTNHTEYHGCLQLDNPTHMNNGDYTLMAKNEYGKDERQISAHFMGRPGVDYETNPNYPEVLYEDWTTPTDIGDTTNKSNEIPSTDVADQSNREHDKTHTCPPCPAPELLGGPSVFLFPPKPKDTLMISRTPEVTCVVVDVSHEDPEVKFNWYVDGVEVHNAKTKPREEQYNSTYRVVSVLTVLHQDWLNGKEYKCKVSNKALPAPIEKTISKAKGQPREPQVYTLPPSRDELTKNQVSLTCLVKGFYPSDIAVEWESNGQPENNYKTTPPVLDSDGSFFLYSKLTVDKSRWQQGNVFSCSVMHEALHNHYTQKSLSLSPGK
Put plainly: blocking ELISA: constant mouse TrkB.hFc (REGN2277) pre-mixed with antibody, binding to plate-coated BDNF. As for the experimental part: Experiments were carried out using the following procedure. Human BDNF was coated at a concentration of 0.5 μg/mL (for blocking mouse TrkB.hFc interaction) or 0.3 μg/mL (for blocking rat TrkB.mmh interaction) in PBS on 96-well microtiter plate and incubated overnight at 4° C. […] In a 96-well dilution plate, 850 pM mouse TrkB.hFc or rat TrkB.mmh was mixed with the three-fold serially diluted anti-mouse TrkB antibodies and control antibody. The final antibody concentrations ranged from 1.69 pM to 100 nM. The protein-antibody mix was incubated at room temperature (RT) for 1 hour. The pre-bound mix was then transferred in duplicates to microtiter plates coated with BDNF. […] Plate-bound mouse TrkB.hFc was detected with HRP-conjugated goat anti-human Fcγ fragment specific antibody (Jackson Immunoresearch) and rat TrkB.mmh was detected with HRP-conjugated anti-histidine antibody (Qiagen). […]
The absorbance at 450 nm for each well was recorded and plotted as a function of the concentration of antibody. Data was analyzed in GraphPad Prism software using a four-parameter logistic equation over an 11-point dose response curve and IC₅₀ values were calculated. […] Percent blockade at maximum concentration of the antibody tested was calculated as an indicator of the ability of the antibodies to block the binding of TrkB to BDNF on the plate relative to the baseline of the assay. […]
In general terms: An ELISA detects its analyte on a solid surface through an enzyme-linked reagent.

T2 sequence (P15209 other isoform, or with tags, fused parts or gaps): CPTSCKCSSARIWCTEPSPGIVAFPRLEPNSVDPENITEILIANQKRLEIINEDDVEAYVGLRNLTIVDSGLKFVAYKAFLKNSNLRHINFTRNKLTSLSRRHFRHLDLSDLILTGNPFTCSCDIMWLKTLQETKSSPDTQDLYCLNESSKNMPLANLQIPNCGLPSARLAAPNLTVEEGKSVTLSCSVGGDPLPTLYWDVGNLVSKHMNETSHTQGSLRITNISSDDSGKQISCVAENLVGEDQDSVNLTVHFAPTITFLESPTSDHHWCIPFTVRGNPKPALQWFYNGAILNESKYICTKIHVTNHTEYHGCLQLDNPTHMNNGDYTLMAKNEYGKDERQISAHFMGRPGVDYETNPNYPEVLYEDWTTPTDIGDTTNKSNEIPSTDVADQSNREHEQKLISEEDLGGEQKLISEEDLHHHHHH
T1 sequence (Q63604 other isoform, or with tags, fused parts or gaps): as the sequence (P15209 other isoform, or with tags, fused parts or gaps) above, with T3M, S9T, A10T, V32I, R63K, S84G, M153T, L185I, S394T counted along it

B1: H1M8037C (antibody, mouse IgG1, kappa, V domains shown)
VH: QVQLVQSGAEVKKPGASVKVSCKASGYTFTNYDIIWVRQAPGQGLEWMGYINPYNDGTKYNEKFKGRVTMTRDTSTSTVYMELSSLRSEDTAVYYCARLLKYRRFRYYAIDYWGQGTTVTVSS
VL: DIQMTQSPSSLSASVGDRVTITCRTSENVYSNLAWYQQKPGKAPKLLIYAASNLQSGVPSRFSGSGSGTDYTFTISSLQPEDIATYYCQHFWGSPFTFGQGTKLEIKR
notes: captured by anti-mFc in SPR; also called Comparator; comparator anti-TrkB monoclonal antibody
Broadly, the Kd is the equilibrium constant for the complex coming apart. A high value points to a looser complex. As a reminder, the koff is the first-order rate constant of dissociation. Read a high koff as fast dissociation. In general, kon refers to a measure of how fast the partners come together. Low values mean slower complex formation, high ones faster complex formation. A word on the t½: it is the time needed for the level to fall by half in the phase considered. Lower therefore signals fast loss. As to B1, the Kd was 31 nM in test [1]; 40.8 nM in [2]; 41.3 nM in test [3]; 1.09 nM in [4]; 87.5 nM in [5]; 94.1 nM in [6]. In addition, the equilibrium dissociation constant (Kd) in [7] worked out at 135 nM; in test [8] it was 1.24 nM. Besides, the koff in test [1] was 0.0016 s⁻¹; in test [2] it was 0.00168 s⁻¹; in [3], 0.00192 s⁻¹; in [4], 9.55e-05 s⁻¹; in test [5], 0.00694 s⁻¹; in test [6] it was 0.00696 s⁻¹. The dissociation rate constant (koff) in test [7] was found to be 0.00831 s⁻¹; in test [8], 0.000292 s⁻¹. In addition, the kon in test [1] came out at 51600 M⁻¹ s⁻¹; in test [2], 41200 M⁻¹ s⁻¹; in [3], 46500 M⁻¹ s⁻¹; in [4], 88000 M⁻¹ s⁻¹; in test [5], 79300 M⁻¹ s⁻¹; in test [6], 74000 M⁻¹ s⁻¹. Also, the kon in test [7] amounted to 61300 M⁻¹ s⁻¹; in test [8] it was 235000 M⁻¹ s⁻¹. Moreover, the “t½” value in [1] turned out to be 7 min; in test [2], 7 min; in [3], 6 min; in test [4] it was 121 min; in test [5], 1.7 min; in test [6], 1.7 min. The “t½” value came to 1.4 min in test [7] and 40 min in test [8].

B2: M2aM14173N (antibody, mouse IgG2a, kappa, V domains shown)
VH: NVSLVESGGGSVKPGGSLQLSCAASGFTFSSSAMSWIRQTPEMRLEWVATISDRGSYTYYPDSVEGRFTISRDNAKNILYLQMSHLMSEDTAMYYCARGKGEKAYYTAFFAYWGQGSLVTVSA
VL: DIQMTQSPASLSASVGETVTITCRASENIYSYLAWYQQKPGKSPHLLVHNAETLAEGVPSRFSGSGSGPQFSLKINSLQPGDSGTYYCQHHYSSPWTFGGGTKLEIKR
notes: Anti-mouse TrkB antibody from hybridoma, mouse IgG2a Fc; also called surrogate anti-mouse TrkB antibody
Regarding B2, the “IC50 (read off the curve)” value with mouse TrkB.hFc was about 100 pM.
